How the values were obtained:
[1] = molecular target: ヒトCD40ヒトFC (human CD40 extracellular region fused to human IgG1 FC) (human) (UniProt P25942); assay: SPR, BIAcore 2000; CD40 human FC immobilised on CM5; control IgG added first, then soluble CD40L 10 ug/ml; difference before and after CD40L
[2] = molecular target: ヒトCD40 (human CD40 expressed on cells) (human) (UniProt P25942); assay: cell-based or functional assay

Substance | CD40Lの結合量 (RU) [1] | 扁桃腺B細胞の増殖抑制 ([3H]チミジン; flag標識CD40L+エンハンサー抗体刺激) [2]
可溶性CD40リガンド (soluble CD40 ligand, FLAG-tagged, ALEXIS CORPORATION) (from UniProt P29965 116-261) | 100 RU | –
5D12抗体 (mouse anti-human CD40 antibody, ATCC No.HB-11339) | – | 50%

— JP2006342173A
